Assay results from publication PMC12373785, “Biochemical characterisation supports a central role for Oep80 from Arabidopsis thaliana in chloroplastic β-barrel protein assembly” (Communications Biology, 2025).
Where a chain is given by its changes, count along the chain named. Names and notes keep the numbering of the source.

B1: Oep80^β-6×His (β-barrel domain of Arabidopsis thaliana Oep80, C-terminal 6×His) (domain or fragment, A. thaliana, UniProt Q9C5J8 398-732, looked up)
chain: SGGFSAGGGISSGITSGPLSGLIGSFAYSHRNLFGRNQKLNVSLERGQIDSIFRINYTDPWIEGDDKRTSRSIMVQNSRTPGNLVHGNQPDNSSLTIGRVTAGVEYSRPFRPKWNGTAGLIFQHAGARDEQGNPIIKDFYSSPLTASGKPHDETMLAKLESIYTGSGDQGSTMFAFNMEQGLPVLPEWLCFNRVTGRARKGIHIGPARFLFSLSGGHVVGKFSPHEAFVIGGTNSVRGYEEGAVGSGRSYVVGSGELSFPVRGPVEGVIFTDYGTDMGSGSTVPGDPAGARLKPGSGYGYGLGVRVDSPLGPLRLEYAFNDQHAGRFHFGVGLRN
notes: AtOep80 (also known as Toc75-V), A. thaliana, β barrel domain, residues 398-732; Mostly dimeric in solution by native MS; Cloned in modified Pet15b for the C-terminal 6×His; also called AtOep80 β barrel domain; Toc75-V β-barrel domain; not shown: His6, C-terminal, kept
B2: Oep80^β C587S/S408C/G727C (domain or fragment, A. thaliana, UniProt Q9C5J8 398-732, looked up)
chain: B1 chain with S11C, C190S, G330C
modifications: intramolecular disulfide between the introduced cysteines 408 and 727 (after Cu2+ incubation)
notes: AtOep80, A. thaliana, β barrel domain, residues 398-732, with native cysteine C587 removed and cysteines introduced in the β1 and β-1 strands
B3: 6×His-Oep80^β (N-terminally tagged β-barrel domain of A. thaliana Oep80) (domain or fragment, UniProt Q9C5J8 398-732, looked up)
chain: B1 chain
notes: AtOep80 (Toc75-V), A. thaliana, β barrel domain, residues 398-732; Cloned in Pet28a (N-terminal 6×His, removable by thrombin); also called tagged Oep80^β; 6×His-tagged version; not shown: His6, N-terminal, kept
B4: untagged Oep80^β (6×His-Oep80^β after thrombin cleavage) (domain or fragment, A. thaliana, UniProt Q9C5J8 398-732, looked up)
chain: B1 chain
notes: AtOep80 (Toc75-V), A. thaliana, β barrel domain, residues 398-732; also called tag-free Oep80^β; not shown: His6, N-terminal, cleaved
B5: Oep21a β-1 wild-type peptide (peptide)
peptide: GKWNVRYDL
notes: also called Oep21a β-signal peptide; Oep21a β-1 w.t; source: synthetic peptide, bought: Proteogenix (99% purity)
B6: Oep21a β-1 D-to-E peptide (peptide)
peptide: GKWNVRYEL
notes: A. thaliana Oep21a β-1, residues 159-167, penultimate residue D changed to E; also called D-to-E mutation; source: synthetic peptide, bought: Proteogenix (99% purity)
B7: Oep21a β-1 D-to-A peptide (peptide)
peptide: GKWNVRYAL
notes: A. thaliana Oep21a β-1, residues 159-167, penultimate residue D changed to A; also called D-to-A mutant; source: synthetic peptide, bought: Proteogenix (99% purity)

Experiments:
[1] = target: Oep80^β mutant with the Oep21a β-1 peptide sequence covalently attached via a flexible GS linker (A. thaliana) (UniProt Q9C5J8); experiment: native MS; protein alone, buffer-exchanged into 200 mM ammonium acetate pH 8.0, 0.5% C8E4; for the oxidised C587S/S408C/G727C mutant 0.1 mM CuSO4 pre-incubated 4 h before buffer exchange; monomer and dimer charge state series
[2] = target: the molecule itself; experiment: as above
[3] = target: B1; experiment: native MS; 100 µM peptide with 7 µM Oep80^β-6×His in 200 mM ammonium acetate pH 8.0, 0.5% C8E4; peptide-bound relative to unbound species, n = 4; settings: both partners purified

## Oep80^β mutant with the Oep21a β-1 peptide sequence covalently attached via a flexible GS linker (from UniProt Q9C5J8 398-732)
[1]
  stoichiometry N: 2

## B1
[2]
  stoichiometry N: 2

## B2
[2]
  stoichiometry N: 2

## B3
[2]
  stoichiometry N: 2

## B4
[2]
  stoichiometry N: 2

## B5
[3]
  binding result: binds

## B6
[3]
  binding result: binds

## B7
[3]
  binding result: binds
